Patent publication US20210087295A1 (University of Pennsylvania, published 2021)

Legend:
[1] = molecular target: T1, human fibroblast activation protein (FAP) (human, UniProt Q12884 1-760); experiment: flow cytometry, hybridoma supernatant on human primary fibroblasts and BALB/c 3T3 cells with a human FAP transgene
T1 construct: whole, on cells; also called human FAP; huFAP
T1 sequence (looked up): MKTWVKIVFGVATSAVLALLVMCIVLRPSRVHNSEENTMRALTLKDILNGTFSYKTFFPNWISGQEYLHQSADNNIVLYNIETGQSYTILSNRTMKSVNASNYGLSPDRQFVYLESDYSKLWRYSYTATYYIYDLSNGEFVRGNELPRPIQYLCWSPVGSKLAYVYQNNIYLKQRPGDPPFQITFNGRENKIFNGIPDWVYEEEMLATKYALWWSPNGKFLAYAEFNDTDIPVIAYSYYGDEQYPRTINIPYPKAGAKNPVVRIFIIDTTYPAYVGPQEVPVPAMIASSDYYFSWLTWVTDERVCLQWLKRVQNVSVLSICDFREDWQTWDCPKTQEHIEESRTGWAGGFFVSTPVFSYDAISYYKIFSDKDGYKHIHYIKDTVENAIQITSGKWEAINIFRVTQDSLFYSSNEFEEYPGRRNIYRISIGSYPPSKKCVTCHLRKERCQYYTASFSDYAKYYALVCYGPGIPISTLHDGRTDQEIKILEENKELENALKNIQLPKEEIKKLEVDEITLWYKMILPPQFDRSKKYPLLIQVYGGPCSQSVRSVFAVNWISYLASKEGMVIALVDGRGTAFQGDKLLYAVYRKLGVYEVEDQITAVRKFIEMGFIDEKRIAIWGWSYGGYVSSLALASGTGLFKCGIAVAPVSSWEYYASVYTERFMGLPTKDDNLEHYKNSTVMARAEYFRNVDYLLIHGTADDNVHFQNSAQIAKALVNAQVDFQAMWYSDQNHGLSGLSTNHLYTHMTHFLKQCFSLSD
Protocol: (§1) BALB/c 3T3 cells expressing full-length canine FAP were used to immunize 14 week old BALB/c.FAP^{-/-} mice. All injections were given intraperitoneally and consisted of 1×10⁷ cells in 0.5 ml sterile PBS. An initial immunization was followed by boosts on days 14 and 28; animals were then bled on day 42 followed a boost on day 56, bleeding on day 63, and three more boosts on days 70, 217, and 238. On day 241, […] spleens were harvested, a single cell suspension prepared, and splenocytes fused with sp2/0 cells by the UPENN Hybridoma Core Facility. Hybridoma supernatant were initially screened by FACS on MC KOSA parental (FAP null) vs. canine FAP-transgene expressing MC KOSA.K9FAP using hybridoma supernatants as the primary antibodies and AF488 goat anti-mouse IgG as a secondary. Clone 4G5 was identified as reactive to transduced cells but not parental cells and screened on additional cells to confirm reactivity with FAP expressing but not FAP-negative cells: Human primary fibroblasts, BALB/c 3T3 expressing murine or human FAP transgenes, canine primary fibroblasts, SK KOSA (FAP expressing), and BALB/c 3T3 (FAP negative) cells. 4G5 was then determined to be an IgG1k isotype antibody using Thermo Fisher Rapid ELISA Mouse mAb Isotyping Kit #37503.
(§2) BALB/c 3T3 fibroblast cells transduced to express full-length canine FAP were used to immunize 14 week old BALB/c FAP^{-/-} mice. […]

[2] = molecular target: T2, murine fibroblast activation protein (FAP) (mouse, UniProt P97321 1-761); experiment: flow cytometry, hybridoma supernatant on BALB/c 3T3 cells with a murine FAP transgene
T2 construct: whole, on cells; also called mouse FAP; muFAP
T2 sequence (looked up): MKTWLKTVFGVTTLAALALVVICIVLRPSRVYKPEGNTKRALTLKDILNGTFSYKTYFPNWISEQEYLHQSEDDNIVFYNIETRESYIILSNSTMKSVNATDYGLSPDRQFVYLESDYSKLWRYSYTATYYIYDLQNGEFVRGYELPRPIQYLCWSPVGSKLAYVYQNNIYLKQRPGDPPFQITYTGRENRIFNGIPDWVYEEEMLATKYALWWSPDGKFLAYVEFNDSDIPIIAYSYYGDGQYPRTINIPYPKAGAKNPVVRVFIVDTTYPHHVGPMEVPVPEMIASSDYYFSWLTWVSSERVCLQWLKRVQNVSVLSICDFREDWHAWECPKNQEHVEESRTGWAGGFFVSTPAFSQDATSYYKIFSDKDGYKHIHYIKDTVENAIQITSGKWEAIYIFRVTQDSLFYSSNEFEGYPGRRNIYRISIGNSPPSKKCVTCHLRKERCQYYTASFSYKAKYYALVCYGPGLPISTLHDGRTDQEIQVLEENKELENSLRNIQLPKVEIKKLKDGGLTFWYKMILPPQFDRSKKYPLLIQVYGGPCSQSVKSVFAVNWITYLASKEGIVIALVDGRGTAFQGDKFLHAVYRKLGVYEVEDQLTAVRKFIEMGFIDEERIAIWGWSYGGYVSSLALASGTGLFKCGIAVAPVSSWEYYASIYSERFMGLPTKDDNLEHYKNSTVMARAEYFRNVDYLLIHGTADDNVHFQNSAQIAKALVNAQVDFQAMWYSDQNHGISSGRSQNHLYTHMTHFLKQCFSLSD
Protocol: as §1, §2

- binding result [1]: binds
- binding result [2]: binds
B1: clone 4G5 anti-FAP antibody (antibody, mouse IgG1, V domains shown)
VH: QVQLQQPGAELVKPGASVKLSCKASGYTITSYSLHWVKQRPGQGLEWIGEINPANGDHNFSEKFEIKATLTVDSSSNTAFMQLSRLTSEDSAVYYCTRLDDSRFHWYFDVWGAGTTVTVSS
VL: QIVLTQSPALMSASPGEKVTMTCTASSSVSYMYWYQQKPRSSPKPWIFLTSNLASGVPARFSGRGSGTSFSLTISSMEAEDAATYYCQQWSGYPPITFGSGTKLEIK
notes: Mouse IgG1 kappa antibody from a hybridoma, used as hybridoma supernatant in flow cytometry; also called 4G5 immunoglobulin; monoclonal 4G5 antibody
